# From patent EP4725970A1
# Target: human BCMA-His (human) (UniProt Q02223)
# Assay: BLI (Octet), 1:1 fit
# Chain of human BCMA-His (human) (Q02223 1-54): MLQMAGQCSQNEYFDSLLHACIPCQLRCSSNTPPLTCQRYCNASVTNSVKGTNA
# Chain of JNJ-BCMA/CD3 (Teclistamab) (bispecific antibody) (heavy): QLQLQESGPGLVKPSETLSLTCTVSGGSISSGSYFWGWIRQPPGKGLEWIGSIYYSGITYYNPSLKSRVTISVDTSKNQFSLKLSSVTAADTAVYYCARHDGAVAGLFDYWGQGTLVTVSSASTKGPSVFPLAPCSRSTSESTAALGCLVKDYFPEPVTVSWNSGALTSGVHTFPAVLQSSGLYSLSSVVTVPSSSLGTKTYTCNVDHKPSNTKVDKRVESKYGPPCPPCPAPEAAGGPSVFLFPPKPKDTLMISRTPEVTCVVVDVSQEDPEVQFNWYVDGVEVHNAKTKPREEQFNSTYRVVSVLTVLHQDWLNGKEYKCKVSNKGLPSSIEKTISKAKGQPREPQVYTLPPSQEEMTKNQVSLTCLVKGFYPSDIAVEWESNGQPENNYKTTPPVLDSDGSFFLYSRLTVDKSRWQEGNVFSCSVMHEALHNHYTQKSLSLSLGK
# Chain of JNJ-BCMA/CD3 (Teclistamab) (bispecific antibody) (light): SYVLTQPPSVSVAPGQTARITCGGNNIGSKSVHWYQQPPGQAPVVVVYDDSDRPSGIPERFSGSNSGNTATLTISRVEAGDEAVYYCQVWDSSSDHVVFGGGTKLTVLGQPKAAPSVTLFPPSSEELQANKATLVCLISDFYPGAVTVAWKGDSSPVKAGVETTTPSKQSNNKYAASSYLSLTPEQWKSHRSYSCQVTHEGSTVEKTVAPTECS
# Chain of JNJ-BCMA/CD3 (Teclistamab) (bispecific antibody) (heavy): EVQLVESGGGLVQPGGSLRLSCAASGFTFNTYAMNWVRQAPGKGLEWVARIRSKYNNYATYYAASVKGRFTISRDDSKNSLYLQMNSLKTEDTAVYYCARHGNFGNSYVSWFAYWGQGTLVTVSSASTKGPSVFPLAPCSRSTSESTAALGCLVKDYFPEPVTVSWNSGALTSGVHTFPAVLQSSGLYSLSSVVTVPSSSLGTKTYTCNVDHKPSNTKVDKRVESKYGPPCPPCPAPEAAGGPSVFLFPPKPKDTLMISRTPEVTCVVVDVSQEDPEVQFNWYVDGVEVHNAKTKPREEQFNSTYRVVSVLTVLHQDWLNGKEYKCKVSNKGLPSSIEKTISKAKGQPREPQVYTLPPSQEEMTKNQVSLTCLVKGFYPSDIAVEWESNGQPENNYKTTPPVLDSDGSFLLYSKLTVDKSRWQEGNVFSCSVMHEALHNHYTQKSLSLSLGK
# Chain of JNJ-BCMA/CD3 (Teclistamab) (bispecific antibody) (light): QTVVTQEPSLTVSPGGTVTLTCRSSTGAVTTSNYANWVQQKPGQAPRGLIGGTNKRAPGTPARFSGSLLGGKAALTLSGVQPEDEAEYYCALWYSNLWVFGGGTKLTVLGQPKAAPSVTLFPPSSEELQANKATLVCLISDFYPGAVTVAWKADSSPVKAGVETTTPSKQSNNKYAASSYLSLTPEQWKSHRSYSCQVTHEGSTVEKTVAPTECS
# Chain of REGN-BCMA/CD3 (REGN5458) (bispecific antibody) (VH): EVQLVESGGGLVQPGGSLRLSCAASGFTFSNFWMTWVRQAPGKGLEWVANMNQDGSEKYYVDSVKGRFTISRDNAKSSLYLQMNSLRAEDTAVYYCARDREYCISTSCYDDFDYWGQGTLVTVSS
# Chain of REGN-BCMA/CD3 (REGN5458) (bispecific antibody) (VL): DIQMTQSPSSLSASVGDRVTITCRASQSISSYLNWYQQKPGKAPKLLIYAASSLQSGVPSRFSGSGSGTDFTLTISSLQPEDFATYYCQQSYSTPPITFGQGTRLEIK
# Chain of REGN-BCMA/CD3 (REGN5458) (bispecific antibody) (chain): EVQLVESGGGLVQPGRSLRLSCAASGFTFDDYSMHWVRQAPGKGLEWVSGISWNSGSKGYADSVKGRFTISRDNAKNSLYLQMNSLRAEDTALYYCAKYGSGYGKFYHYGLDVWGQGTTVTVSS
Kd [nM],koff [s⁻¹],kon [M⁻¹ s⁻¹],Substance
0.435,0.000722,1.66e+06,JNJ-BCMA/CD3 (Teclistamab) (bispecific antibody)
0.205,0.000262,1.28e+06,Roche-BCMA/CD3 (Alnuctamab) (bispecific antibody)
1.13,0.000792,701000,REGN-BCMA/CD3 (REGN5458) (bispecific antibody)
